In publication PMC5371411 (mBio, 2017) one finds binding result and Kd data, which are given here for one molecule.

Where “and” joins values, the source holds several entries; their conditions need not be identical. Identical values can stand only once.

The target of one data set is EspCS256I (enteropathogenic Escherichia coli (EPEC), UniProt Q9EZE7 54-1018, S256I). Nature of the data set: pull-down. To be noted: both partners purified.
Data set [1] concerns the molecule itself. Nature of the data set: SPR; His-EspA amine-coupled (EDC-NHS, 10 mM sodium acetate pH 4.0) to a planar polyethylene glycol/carboxyl sensor slide; analyte perfused in PBST at 50 µl/min; Reichert SR7500DC.
The target in another data set is T1, EspC His-Middle segment (enteropathogenic Escherichia coli (EPEC), UniProt Q9EZE7 382-708).
T1 construct: also called Middle fragment; source: E. coli BL21(D3)pLysS, pRSET-A, purified (Ni-NTA agarose); not shown: 6xHis, N-terminal, kept
T1 sequence: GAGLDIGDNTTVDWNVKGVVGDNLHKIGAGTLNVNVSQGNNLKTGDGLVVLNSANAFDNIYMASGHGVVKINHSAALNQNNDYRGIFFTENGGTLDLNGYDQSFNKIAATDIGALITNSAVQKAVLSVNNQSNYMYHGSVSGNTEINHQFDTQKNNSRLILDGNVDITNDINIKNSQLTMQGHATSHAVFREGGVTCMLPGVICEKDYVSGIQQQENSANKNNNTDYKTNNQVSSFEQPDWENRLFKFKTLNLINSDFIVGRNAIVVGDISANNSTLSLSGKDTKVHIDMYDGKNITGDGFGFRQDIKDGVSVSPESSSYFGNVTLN
The data set is described as above. As to conditions: both partners purified.

In the next data set the target is T2, His-EspC (enteropathogenic Escherichia coli (EPEC), UniProt Q9EZE7 55-1032).
T2 construct: also called whole EspC passenger domain tagged with 6xHis; whole EspC protein (SPR); source: E. coli BL21(D3)pLysS, pRSET-A, purified (Ni-NTA agarose); not shown: 6xHis, N-terminal, kept
T2 sequence: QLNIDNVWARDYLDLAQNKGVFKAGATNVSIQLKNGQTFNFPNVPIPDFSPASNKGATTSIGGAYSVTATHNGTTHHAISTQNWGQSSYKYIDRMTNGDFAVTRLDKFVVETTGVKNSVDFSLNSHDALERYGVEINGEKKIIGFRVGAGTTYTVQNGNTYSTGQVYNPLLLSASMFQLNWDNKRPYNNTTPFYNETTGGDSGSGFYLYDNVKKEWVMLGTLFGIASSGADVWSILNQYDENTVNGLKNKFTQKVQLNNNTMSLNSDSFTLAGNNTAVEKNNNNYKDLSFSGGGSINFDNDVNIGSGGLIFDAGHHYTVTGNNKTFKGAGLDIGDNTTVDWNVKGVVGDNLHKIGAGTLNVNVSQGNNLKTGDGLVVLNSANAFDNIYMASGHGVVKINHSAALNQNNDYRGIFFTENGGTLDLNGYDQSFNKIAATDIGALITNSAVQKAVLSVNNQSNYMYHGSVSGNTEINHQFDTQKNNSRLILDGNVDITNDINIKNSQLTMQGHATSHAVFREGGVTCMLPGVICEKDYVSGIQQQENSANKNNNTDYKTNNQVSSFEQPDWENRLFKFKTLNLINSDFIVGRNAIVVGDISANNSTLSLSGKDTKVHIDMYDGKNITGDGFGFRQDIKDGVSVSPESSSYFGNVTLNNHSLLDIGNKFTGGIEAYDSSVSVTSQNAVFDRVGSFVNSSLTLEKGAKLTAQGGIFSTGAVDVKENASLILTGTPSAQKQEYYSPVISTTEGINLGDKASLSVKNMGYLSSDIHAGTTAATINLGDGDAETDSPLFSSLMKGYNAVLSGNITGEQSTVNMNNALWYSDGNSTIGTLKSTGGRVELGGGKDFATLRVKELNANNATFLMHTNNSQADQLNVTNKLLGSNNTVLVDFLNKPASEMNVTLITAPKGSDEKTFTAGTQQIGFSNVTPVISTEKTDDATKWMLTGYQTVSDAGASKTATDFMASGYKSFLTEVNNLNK
Nature of the data set: SPR; His-EspC coupled by its His tag and EDC-NHS on a nickel-nitrilotriacetic acid sensor slide; His-EspA or His-EspA/His-EspD perfused in PBST at 50 µl/min; Reichert SR7500DC. To be noted: both partners purified.

B1: His-EspA (natural protein)
chain: MDTSTTASVASANASTSTSMAYDLGSMSKDDVIDLFNKLGVFQAAILMFAYMYQAQSDLSIAKFADMNEASKESTTAQKMANLVDAKIADVQSSSDKNAKAQLPDEVISYINDPRNDITISGIDNINAQLGAGDLQTVKAAISAKANNLTTTVNNSQLEIQQMSNTLNLLTSARSDMQSLQYRTISGISLGK
notes: also called EPEC secreted protein A
As a reminder, the Kd is the concentration at which binding is half-saturated. For the molecule B1, the binding result with EspCS256I was “binds”. The Kd in data set [1] was 2.64 nM; in the data set with EspC His-Middle segment it was 3.45 nM and 3.43 nM; in the data set with His-EspC, 25.1 nM.
